From US20240124607A1 (Merck Sharp & Dohme, published 2024) come the findings set out here.

A word on the Kd: it is the concentration at which binding is half-saturated. By kon is commonly meant the rate constant with which the complex forms. Low values mean slow association, high ones fast association. Broadly, the koff is a measure of how fast the partners let go of each other. Read a low koff as a long-lived complex.

One assay has as its target T1, CEACAM5 N-A1-B1-His (human, UniProt P06731 35-322, limits assumed).
T1 sequence: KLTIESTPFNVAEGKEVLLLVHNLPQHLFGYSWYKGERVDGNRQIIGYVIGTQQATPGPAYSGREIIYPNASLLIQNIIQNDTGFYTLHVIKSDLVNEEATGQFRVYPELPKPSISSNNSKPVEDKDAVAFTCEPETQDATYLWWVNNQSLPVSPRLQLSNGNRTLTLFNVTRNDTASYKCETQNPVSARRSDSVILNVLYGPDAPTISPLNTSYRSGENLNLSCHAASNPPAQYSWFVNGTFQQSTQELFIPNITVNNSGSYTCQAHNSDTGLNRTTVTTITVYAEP
The assay can be described thus: SPR, Fab capt, 25C. On the procedure: (§1) If the protein domain was an Fc fusion, AB0411, AB0466, AB0264, or AB0621 were captured using an anti-human Fab antibody (Cytiva, #28958325) immobilized onto a CM5 chip. The various hCEACAM5 protein domains (N-term, A1-B1, A2, B2, A3, or B3) were titrated over the captured TriNKETs at 50 μL/min for 180 sec of association and 300 sec of dissociation. The assay was run at 25° C. in HBS-EP+ running buffer, pH 7.4. The surface of the CM5 chip was regenerated using […] glycine pH 2.1.
(Surface plasmon resonance follows binding to a sensor surface in real time, without labels.)

Another assay addresses T2, Cyno FcγRIIIA (cynomolgus monkey, UniProt Q8SPW2 17-208, limits assumed, biotinylated).
T2 construct: also called cynomolgus CD16A
The assay is described as follows: SPR, biotin-CD16A on SA chip, 25C, pH 6.0. On the procedure:
(§2) Binding to human and cynomolgus CD16A was assessed using biotinylated CD16A captured on a streptavidin (SA) sensor chip (Cytiva, #BR100531). AB0411, AB0466, or AB0621 was titrated from 1500 nM at 25° C. at 30 μL/min for 150 sec association followed by 300 sec dissociation. The surface of the chip was regenerated with 2 mM sodium hydroxide for 5 sec at 30 μL/min. Running buffer was HBS-EP+. […] The V158 isoform bound ˜2- to 3-fold tighter than the F158 isoform as expected.

In assay [1] the target is T3, human CD16A (FcγRIIIA) V158 (human, UniProt P08637 17-208, limits assumed, biotinylated in the assay of Table 21).
T3 construct: also called CD16A (V158/V176)
The assay can be described thus: SPR, biotin-CD16A on SA chip, 25C, pH 6.0. On the procedure:
as §2

For assay [2], the target named is T4, human CEACAM8 on Ba/F3 cells (human, UniProt P31997 35-320).
T4 construct: whole, on cells
T4 sequence (looked up): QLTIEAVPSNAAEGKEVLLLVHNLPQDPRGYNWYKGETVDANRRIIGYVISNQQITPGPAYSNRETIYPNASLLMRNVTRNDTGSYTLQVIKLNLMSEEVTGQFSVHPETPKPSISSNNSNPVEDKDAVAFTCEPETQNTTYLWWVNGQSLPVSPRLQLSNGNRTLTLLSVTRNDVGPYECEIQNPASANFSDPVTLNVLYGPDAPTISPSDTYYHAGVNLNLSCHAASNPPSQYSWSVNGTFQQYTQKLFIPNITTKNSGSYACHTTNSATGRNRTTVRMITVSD
The assay is described as follows: flow cytometry on Ba/F3 cells expressing human CEACAM8, fold over background (FOB), 5-fold dilutions from 1600 nM. On the procedure: To examine the binding specificity of the TriNKETs to CEACAM5 compared to other CEACAM family members, Ba/F3 cells were engineered to express one of human CEACAM1, CEACAM6, CEACAM8, or cynomolgus CEACAM5. CEACAM5 TriNKETs were evaluated by flow cytometry starting at 1600 nM followed by 7 5-fold dilutions.
For orientation: A flow cytometer gives signals particle by particle.

In a further assay the target is T5, hCEACAM5 A3-B3 domain (human, UniProt P06731 501-685, limits assumed).
T5 sequence: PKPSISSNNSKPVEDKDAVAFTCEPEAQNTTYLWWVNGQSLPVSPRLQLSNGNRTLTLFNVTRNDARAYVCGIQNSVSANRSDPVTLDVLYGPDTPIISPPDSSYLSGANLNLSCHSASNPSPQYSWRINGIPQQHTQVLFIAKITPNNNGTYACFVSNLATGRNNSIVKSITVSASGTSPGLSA
The assay is described as follows: SPR with hCEACAM5 domains. On the procedure: as §1
The various hCEACAM5 protein domains were titrated over the captured antibody at 50 μL/min for 180 sec of association and 300 sec of dissociation. The assay was run at 37° C. in HBS-EP+ running buffer, pH 7.4. The surface of the CM5 chip was regenerated using 3M MgCl₂.

T3 sequence (P08637 17-208 F176V limits assumed): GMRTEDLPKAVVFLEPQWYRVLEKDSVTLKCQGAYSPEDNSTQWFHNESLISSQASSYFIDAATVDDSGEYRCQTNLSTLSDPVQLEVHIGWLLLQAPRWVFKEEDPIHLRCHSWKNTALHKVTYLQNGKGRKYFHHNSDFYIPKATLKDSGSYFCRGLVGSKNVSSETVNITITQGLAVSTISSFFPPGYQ
T2 sequence (Q8SPW2 17-208 limits assumed): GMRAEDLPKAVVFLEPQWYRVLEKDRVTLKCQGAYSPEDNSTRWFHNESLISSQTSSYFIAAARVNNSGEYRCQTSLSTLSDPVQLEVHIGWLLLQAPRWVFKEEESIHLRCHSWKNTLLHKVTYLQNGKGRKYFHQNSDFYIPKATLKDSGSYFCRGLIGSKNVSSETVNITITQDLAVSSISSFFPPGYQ

B1: AB0621 F3' CEACAM5 TriNKET (bispecific antibody, human IgG1, kappa)
chain: DIVMTQSPDSLAVSLGERATINCKSSHSLLYGNFQNNYLAWYQQKPGQPPKLLIYWASTRESGVPDRFSGSGSGTDFTLTISSLQAEDVAVYYCQQYYSYPYTFGCGTKLEIKGGGGSGGGGSGGGGSGGGGSQVQLVQSGAEVKKPGASVKVSCKASGYTFTAYTIHWVRQAPGQCLEWMGYINPSSGYTEYNQKFKDRTTLTADTSISTAYMELSRLRSDDTAVYYCTREGGLLWFDYWGQGTLVTVSSGSDKTHTCPPCPAPELLGGPSVFLFPPKPKDTLMISRTPEVTCVVVDVSHEDPEVKFNWYVDGVEVHNAKTKPREEQYNSTYRVVSVLTVLHQDWLNGKEYKCKVSNKALPAPIEKTISKAKGQPREPRVYTLPPCRDELTKNQVSLTCLVKGFYPSDIAVEWESNGQPENNYKTTPPVLVSDGSFTLYSKLTVDKSRWQQGNVFSCSVMHEALHNHYTQKSLSLSPG
heavy: EVQLVESGGGLVKPGGSLRLSCAASGFTFSSYSMNWVRQAPGKGLEWVSSISSSSSYIYYADSVKGRFTISRDNAKNSLYLQMNSLRAEDTAVYYCARGAPIGAAAGWFDPWGQGTLVTVSSASTKGPSVFPLAPSSKSTSGGTAALGCLVKDYFPEPVTVSWNSGALTSGVHTFPAVLQSSGLYSLSSVVTVPSSSLGTQTYICNVNHKPSNTKVDKKVEPKSCDKTHTCPPCPAPELLGGPSVFLFPPKPKDTLMISRTPEVTCVVVDVSHEDPEVKFNWYVDGVEVHNAKTKPREEQYNSTYRVVSVLTVLHQDWLNGKEYKCKVSNKALPAPIEKTISKAKGQPREPQVCTLPPSRDELTENQVSLTCLVKGFYPSDIAVEWESNGQPENNYKTTPPVLDSDGSFFLYSWLTVDKSRWQQGNVFSCSVMHEALHNHYTQKSLSLSPG
light: DIQMTQSPSSVSASVGDRVTITCRASQGISSWLAWYQQKPGKAPKLLIYAASSLQSGVPSRFSGSGSGTDFTLTISSLQPEDFATYYCQQGVSFPRTFGGGTKVEIKRTVAAPSVFIFPPSDEQLKSGTASVVCLLNNFYPREAKVQWKVDNALQSGNSQESVTEQDSKDSTYSLSSTLTLSKADYEKHKVYACEVTHQGLSSPVTKSFNRGEC
On to B1, for which the values for the Kd (with CEACAM5 N-A1-B1-His; in the assay with Cyno FcγRIIIA; in assay [1]) were 1.8 nM, 25 nM and 58 nM, respectively. Also, the figures for the kon (with CEACAM5 N-A1-B1-His; in assay [1]) were 350000 M⁻¹ s⁻¹ and 690000 M⁻¹ s⁻¹, respectively. Moreover, in assay [1], the koff was determined as 0.04 s⁻¹. Besides, the values for the binding result (in assay [2]; with hCEACAM5 A3-B3 domain) were “no binding (tested: 1600 nM)” and “no binding”, respectively.
